Test results reported in article PMC6154995, “Heme-dependent Inactivation of 5-Aminolevulinate Synthase from Caulobacter crescentus” (Scientific Reports, 2018).

Molecular target: the molecule itself
Test: SEC + native gel or EMSA; data not shown; purified yellow (PLP) and red (heme) fractions of recombinant cALAS; oligomeric state in solution; conditions not given

| Protein | stoichiometry N |
| --- | --- |
| 5-aminolevulinate synthase from Caulobacter crescentus, PLP form (yellow form) (enzyme, pyridoxal 5'-phosphate (PLP), predicted to bind to the ε-amino group of Lys248, 5-aminolevulinate synthase (ALAS) of Caulobacter crescentus CB15, gene CC_1355, 408 residues, predicted mass 44,273 Da; gene PCR-amplified from genomic DNA; Same polypeptide as m2; also called cALAS; C. crescentus ALAS; source: E. coli BL21(DE3) pLysS, pET-28b, purified (HisTrap FF Crude, Mono Q; first, yellow eluate of the anion exchange column)) not shown | 2 |
| 5-aminolevulinate synthase from Caulobacter crescentus, heme form (red form) (enzyme, 5-aminolevulinate synthase (ALAS) of Caulobacter crescentus CB15, gene CC_1355, 408 residues, predicted mass 44,273 Da; gene PCR-amplified from genomic DNA; Same polypeptide as m1; also called cALAS; red form of cALAS; source: E. coli BL21(DE3) pLysS, pET-28b, purified (HisTrap FF Crude, Mono Q; second, reddish-brown eluate of the anion exchange column)) not shown | 2 |
